Experimental data: the nanobody polyreactivity screen of Harvey et al. (2022)

Experiment: yeast display, Sf9 membrane polyspecificity reagent, FACS + sequencing; frameworks hold sequencing errors
Procedure, shortened: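 After 36–48 hours of galactose induction, yeast (Saccharomyces cerevisiae BJ5465) displaying a synthetic nanobody library were stained at 4 °C for 1 hour with 10% biotinylated, detergent-solubilized Sf9 membrane reagent. Streptavidin microbeads enriched the stained cells before FACS sorting into low and high (top ~1%) gates on anti-HA and streptavidin fluorescence. Each clone's polyreactivity label reflects its gate of origin.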

| Sequence | polyreactivity (PSR sort gate) |
| --- | --- |
| QVQLVESGGGLVQAGGSLRLSCAASGLTFWGYAMGWYRQAPGKEREFVASISSGGGSTYYADSVKGRFTISRDNAKNTVYLQMNSLKPEDTAVYYCNVDVHLYLYKSYTYRYYYWGQGTQVTVSS | low polyreactivity |
| QVQLVESGGGLVQAGGSLRLSCAASGLTFWRYTMGWYRHAPGKERELVATIRRGTSTNYADSVKGRFTISRDNAKNTVYLQMNSLKPEDTAVYYCAAVPWRYYVEYDYWGQGTQVTVSS | high polyreactivity |
| QVQLVESGGGLVQAGGSLRLSCAASGLTFWRYTMGWYRPAPGKERELVAVITYRGGSTYYADSVKGRFTISRDNAKNTVYLQMNSLKPEDTAVYYCDAGRRTYGLTYDYWGQGTQVTVSS | high polyreactivity |
| QVQLVESGGGLVQAGGSLRLSCAASGLTFWTNTMGWSRQAPGKERELVATISSGGGTYYADSVKGRFTISRDNAKNTVYLQMNSLKPEDTAVYYCAAKRKRYFVGYYYWGQGTQVTVSS | low polyreactivity |
| QVQLVESGGGLVQAGGSLRLSCAASGLTFWYYAMGWYRQAPGKERELVAAISFSGGRTYYADSVKGRFTISRDNAKYTVYLQMNSLKPEDTAVYYCNKATWYPFWYAPSYDYWGQGTQVTVSS | high polyreactivity |
| QVQLVESGGGLVQAGGSLRLSCAASGLTFYEDVLGWYRQAPGKERELVAAISYSGGRTYYADSVQGRFTISRDNAKNTVYLQMNSLKPEDTAVYYSAAQSRYAGKFYYWGQGTQVTVSS | high polyreactivity |
| QVQLVESGGGLVQAGGSLRLSCAASGLTFYGNAMGWYIQAPGKERELVAAISSRGGRTYYADSVKGRFTISRDNAKNTVYLQMNSLKPEDTAVYYCNDRYKYPDMDYWGQGTQVTVSS | high polyreactivity |
| QVQLVESGGGLVQAGGSLRLSCAASGLTFYGNAMGWYRQAPGKERELVAAISRGGRTYYADSVKGRFTISRDNAKNTVYLQMNSLKPEDTAVYYCATVVSRGKQPFDMDYWGQGTQVTVSS | low polyreactivity |
| QVQLVESGGGLVQAGGSLRLSCAASGLTFYGYTMGWYRQAPGKERELVADISISGGSTRYADSVKGRFTISRDNAKNTVYLQMNSLKPEDTAVYYCARDDIYYSNIYDYWGQGTQVTVSS | low polyreactivity |
| QVQLVESGGGLVQAGGSLRLSCAASGLTFYGYVMGWYRQAPGKERELVASISRSGGRTYYADSVKGRFTISRDNAKNTVYLQMNSLKPEDTAVYYCAAADQVGQEDDYWGQGTQVTVSS | low polyreactivity |
| QVQLVESGGGLVQAGGSLRLSCAASGLTFYKNAMGWYRQPPGKERELGAVISSSGGSTYYADSVKGRFTISRDNAKNTVYLQMKSLKPEDTAVYYSARDLYTEYRWGRLTYDYWGQGTQVTVSS | low polyreactivity |
| QVQLVESGGGLVQAGGSLRLSCAASGLTFYPNAMGWYRPAPGKEREFVASISISGRTYYADSVKGRFTISRDNAKNTVYLQMNSLKPEDTAVYYCAARYVRSGLYRKYDYWGQGTQVTVSS | high polyreactivity |
| QVQLVESGGGLVQAGGSLRLSCAASGLTFYQYAMGWYRQAPGKERELVAAISKSAGSTYYADSVKGSFTISRDNAKNTVYLQMNSLKPEDTAVYFCAARVLRLRYDYWGQGTQVTVSS | high polyreactivity |
| QVQLVESGGGLVQAGGSLRLSCAASGLTFYQYAMGWYRQAPGKERELVAGISSGGSTKYADSVKGRFTISRDNAKNTVYLQMNSLKPEDTAVYYCAARFCAFRKGYYYWGQGTQVTVSS | high polyreactivity |
| QVQLVESGGGLVQAGGSLRLSCAASGLTFYQYTMGWYRQAPGKERELVAAISRRGGSTYYADSVKGRFTISRDNAKNTVYLQMNSLKPEDTAVYYCAARALRYSSDFDYWGQGTQVTVSS | high polyreactivity |
| QVQLVESGGGLVQAGGSLRLSCAASGLTFYRYAMGWYRQAPGKEMELVAAIRVSGNTYYADSVKGPFTISRDNAKNTVYLEMNCLKPEDTAVYYCAAKPYYFYGMDYWGQGTQVTVSS | high polyreactivity |
| QVQLVESGGGLVQAGGSLRLSCAASGLTFYRYAMGWYRQAPGKERELVAAIRSNVVTTYYADSVKGRFTISRDNAKNTVYLQMNSLKPEDTAVYYCNAVSYSFPIHRVRPTWYDYWGQGTQVTVSS | high polyreactivity |
| QVQLVESGGGLVQAGGSLRLSCAASGLTFYRYAMGWYRQSPGKERELVAAISRGGTSTYYADSVKGRFTISRDNAKNTVYLQMSSLKPEDTAVYYCARLVKPYNYGRYGYWGQGTQVTVSS | high polyreactivity |
| QVQLVESGGGLVQAGGSLRLSCAASGLTFYSNAMGWYIQAPGKERELVASISKRGATTYYADSVKGRFTISRDIAKYTVYLQMNSQKAEDTAVYYCAAEYLRNQELGYQGVAILYVFWGQGTQVTVSS | low polyreactivity |
| QVQLVESGGGLVQAGGSLRLSCAASGLTFYSNAMGWYRQAPGKERELVAAITWRSVRTYYADSVKGRFTISRDNAKNTVYLQMNSLKPEDTAVYYCAAASASRHGEYDYWGQGTQVTVSS | low polyreactivity |
| QVQLVESGGGLVQAGGSLRLSCAASGLTFYSNAMGWYRQAPGKERELVASISNGGSTNYADSVKGRFTISRDNAKNTVYLQMNSLKPEDTAVYYCAAEYSLRHRRYTFFAEMDYWGQGTQVTVSS | low polyreactivity |
| QVQLVESGGGLVQAGGSLRLSCAASGLTFYSYAMGWYRQAPGKERELVAAISNTGGTNYADSVKGRFTISRDNAKNNVYFQMTSLKPEDTAVYYCNRTFYHYLYRGYGYWGQGTQVTVSS | low polyreactivity |

| Sequence | polyreactivity (PSR sort gate) |
| --- | --- |
| QVQLVESGGGLVQAGGSLRLSCAASGLTFYVYAMGWYRQAPGKERELVAAISSGGRTYYADSVKGRFTISRDNAKNTVYLQMNSLKPEDTAVYYCAARSPVWRTTEDYWGQGTQVTVSS | high polyreactivity |
| QVQLVESGGGLVQAGGSLRLSCAASGLTFYYYAMGWYRQAPGKERELVAAISIGGSTDYADSVKGRFTISRDNAKNTVYLQMNSLKPEDTAVYYCNVDDNSEYDYWGQVTQVTVSS | low polyreactivity |
| QVQLVESGGGLVQAGGSLRLSCAASGLTFYYYAMGWYRQAPGKERELVAAITWSGASTYYADSVKGRFTISRDNAKNTVYLQMNSLKPEDTAVYYCNARVWGGVEFGYWGQGTQVTVSS | high polyreactivity |
| QVQLVESGGGLVQAGGSLRLSCAASGLTFYYYAMGWYRQAPGKERELVATISSGGNTNYADSVKGRFTISRDNAMNTVYLQMNSLKPEDTAVYYCNADRWFHYYRYNYWGQGTQVTVSS | high polyreactivity |
| QVQLVESGGGLVQAGGSLRLSCAASGLTFYYYVMGWYRQAPGKERELVAAISSSGGNTYYADSVKGRFTISRDNEKNTVYLQMNSLKPEDTAVYYCAAGQKRTLDNYWGQGTQVTVSS | high polyreactivity |
| QVQLVESGGGLVQAGGSLRLSCAASGLTIAYYDMGWYRPAPGKERELVARISRGGSTNYADSVKGRFTISRDNAKNTVYLQMNSLKPEDTAVYYCNTGYVYPYKILMDYWGQGTQVTVSS | low polyreactivity |
| QVQLVESGGGLVQAGGSLRLSCAASGLTIDRNAMGWYRQAPGKERELVAAINWRGSRTYYADSVKGRFTISRDNAKNTVYLQMNSLKPEDTAVYYCAADWHTTYDYWGQVTQVTVSS | high polyreactivity |
| QVQLVESGGGLVQAGGSLRLSCAASGLTIRYNAMGWYRQAPGKERELVARISRNGGRTYYADSVKGRFTISRDNAKNTVYLQMKSLKPEDTAVNYCNVVYFVTTSPGYDYWGQGTQVTVSS | high polyreactivity |
| QVQLVESGGGLVQAGGSLRLSCAASGLTISTYAMGWYIQAPGKDRELVATITYSGSSTYADSVKGRFTISRDNAKNTVYLQMNSLKPEDTAVYYCAAFTYHGNPSEYYPDTVGFYYWGQGTQVSVSS | low polyreactivity |
| QVQLVESGGGLVQAGGSLRLSCAASGLTIVNYAMGWYRQAPGKERELVAAITVNGGRTYYADSVKGRFTISRDNAKNTVYLQMNSLKPEDTAVYYCAAVYYRHWYTYSSDYWGQGTQVTVSS | high polyreactivity |
| QVQLVESGGGLVQAGGSLRLSCAASGLTLAPYAMGWYRQAPGKERELVAVITRRGGRTYYADSVKGRFTISRDNAKNTVYLQMNSLKPEDTAVYYCNADTANYADGLDYWGQGTQVTVSS | low polyreactivity |
| QVQLVESGGGLVQAGGSLRLSCAASGLTLFRNAMGWYRQAPGKERELVAAISSGGSTYYADSVKGRFTISRDNAKNTVYLQMNSLKPEDTAVYYCATDSVSPVEEEDYWGQGTQVTVSS | low polyreactivity |
| QVQLVESGGGLVQAGGSLRLSCAASGLTLHGNAMGWYRQAPGKERELVATITSSGGSTFYADSVKGRFTISRDNAKNTVYLQMNSLKPEDTAVYYCNADAPYSDDYYVRFDYWGQGTQVTVSS | low polyreactivity |
| QVQLVESGGGLVQAGGSLRLSCAASGLTLQGYVMGWSRQAPGKDRELVATISYSGGSTRYADSVKGRFTISRDNAKNTVYLQMNSLNPEDTAVYYCNRDSFHYYAERDYWGQGTQVTVSS | low polyreactivity |
| QVQLVESGGGLVQAGGSLRLSCAASGLTLQPYAMGWSRQAPRNERELVAAITSGGSTYYADSVKGRFTISRDNAKNTVYLQMNSLKPEDTAVYYCAATVSYDFGYVAVSYDYWGQGTQVTVSS | low polyreactivity |
| QVQLVESGGGLVQAGGSLRLSCAASGLTLQRYTMGWYRQAPGKERELVAAISRSGGGTYYADSVKGRFTISRDNAKNTVYLQMNSLKPEDTAVYYCNKVRGAVPWFDMDYWGQGTQVTVSS | high polyreactivity |
| QVQLVESGGGLVQAGGSLRLSCAASGLTLRNYAMGWYRQAPGKERELVAAITTGGGRTYYADSVKGRFTISRDNAKNTVYLQMNSLKPEDTAVYYCAAERAILSSDKQSLWRFDYWGQGTQVTVSS | low polyreactivity |
| QVQLVESGGGLVQAGGSLRLSCAASGLTLRRYAMGWYRQAPGKETELVAGITSGGSTYYADSVKGRFTISRDNAKNTVYLQMYSLKPEDTAVYYCAARVRKYYKPYGYWGQGTQVTVSS | high polyreactivity |
| QVQLVESGGGLVQAGGSLRLSCAASGLTLSGNAMGWYRQAPGKERELVAAITGRGGSTTYADSVKGRFTISRDNAKNTVYLLMNSLKPEDTAVYYCAADGRWYWDYEYWGQGTQVTVSS | low polyreactivity |
| QVQLVESGGGLVQAGGSLRLSCAASGLTLSGYAMGWYRQAPGKERELVAAISYTGGSTYYADSVKGRFTISRDNAKNTVYLQMNSLKPEDTAVYYCAARAGSRSFDYWGQGTQVTVSS | high polyreactivity |
| QVQLVESGGGLVQAGGSLRLSCAASGLTLSYNAMGWYRQAPGKERELVAAIRSGGSTNYADSVKGRFTISRDNAKNTVYLQMNSLKPEDTAVYYCAARFRYLPYRYGRYQSGYEYWGQGTQVTVSS | high polyreactivity |
